Changes are numbered by the printed parent chain. Names may count otherwise.
How the values were obtained:
Conditions in all cases: both partners purified
[1] = target: T1, human IL-17RC extracellular domain (human, UniProt Q8NAC3-2 21-467); assay: SPR; Biacore 8K; IL-17RC ECD immobilised (about 500 RU) by amine coupling on a CM4 chip; cytokines as analytes in PBS pH 7.4, 3 mM EDTA, 0.05% Tween20; 20 °C, 30 µl/min; 1:1 Langmuir model, steady-state analysis for variants of weaker affinity; mean of at least five independent experiments
T1 construct: human IL-17RC full-length extracellular domain, residues 21-467 of UniProt entry Q8NAC3-2, secreted with the CD33 signal peptide; numbers count on: isoform Q8NAC3-2; also called IL-17RC ECD; source: GnTI-deficient HEK293S, transient expression, purified (anti-APP antibody column, Resource-Q, Superdex-200 SEC)
T1 sequence (looked up): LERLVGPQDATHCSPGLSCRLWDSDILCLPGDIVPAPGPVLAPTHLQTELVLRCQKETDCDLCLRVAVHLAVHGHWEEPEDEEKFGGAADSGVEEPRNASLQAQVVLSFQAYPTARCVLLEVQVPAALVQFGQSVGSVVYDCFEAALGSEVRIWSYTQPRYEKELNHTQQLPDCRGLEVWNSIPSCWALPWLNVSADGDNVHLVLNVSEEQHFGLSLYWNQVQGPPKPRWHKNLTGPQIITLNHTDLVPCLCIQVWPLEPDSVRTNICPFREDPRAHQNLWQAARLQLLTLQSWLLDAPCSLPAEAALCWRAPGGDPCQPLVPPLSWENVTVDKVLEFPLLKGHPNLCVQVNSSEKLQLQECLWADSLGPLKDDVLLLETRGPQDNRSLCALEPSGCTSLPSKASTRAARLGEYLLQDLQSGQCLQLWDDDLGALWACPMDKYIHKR

[2] = target: T2, human IL-17RA extracellular domain (human, UniProt Q96F46 33-320, biotin on the Avi-tag (BirA) for SPR measurements); assay: SPR; Biacore 8K; biotinylated IL-17RA ECD immobilised (about 500 RU) on a streptavidin SA chip; cytokines as analytes in PBS pH 7.4, 3 mM EDTA, 0.05% Tween20; 20 °C, 30 µl/min; 1:1 Langmuir model, steady-state analysis for variants of weaker affinity; mean of at least five independent experiments
T2 construct: human IL-17RA full-length extracellular domain, residues 33-320 of UniProt Q96F46, secreted with the CD33 signal peptide; The construct is described 'for crystallization'; the SPR sample is the same ECD biotinylated on its Avi-tag; In the crystal the complex was treated with PNGaseF and Endoglycosidase H and biotinylation is not mentioned; also called IL-17RA ECD; source: GnTI-deficient HEK293S, …

[3] = target: T3, human IL-17RC extracellular domain (human, UniProt Q8NAC3-2 21-467); assay: SPR; Biacore 8K; IL-17RC ECD amine-coupled on a CM4 chip (about 500 RU); cytokines as analytes in PBS pH 7.4, 3 mM EDTA, 0.05% Tween20; 20 °C, 30 µl/min; 1:1 Langmuir model or steady-state analysis
T3 construct: human IL-17RC, full-length extracellular domain, residues 21-467 of UniProt Q8NAC3-2, cloned behind the CD33 signal peptide; numbers count on: isoform Q8NAC3-2; also called IL-17RC ECD; IL-17RC receptor
T3 sequence (looked up): T1 sequence (looked up)

[4] = target: T4, human IL-17RA extracellular domain (human, UniProt Q96F46 33-320, biotin on the Avi-tag (E. coli BirA), for the SPR measurements only); assay: SPR; Biacore 8K; biotinylated IL-17RA ECD immobilised on a streptavidin chip (about 500 RU); cytokines as analytes in PBS pH 7.4, 3 mM EDTA, 0.05% Tween20; 20 °C, 30 µl/min; 1:1 Langmuir model or steady-state analysis
T4 construct: human IL-17RA, full-length extracellular domain, residues 33-320 of UniProt Q96F46, cloned behind the CD33 signal peptide; The same construct was used unbiotinylated for the complex and its crystals (treated with PNGaseF and Endoglycosidase H) and biotinylated for SPR; also called IL-17RA ECD; IL-17RA receptor; source: GnTI-deficient HEK293S, transient expression, secreted, purified (anti-APP …)

B1: human IL-17F homodimer, wild type (ligand, UniProt Q96PD4 31-163, looked up)
chain: RKIPKVGHTFFQKPESCPPVPGGSMKLDIGIINENQRVSMSRNIESRSTSPWNYTVTWDPNRYPSEVVQAQCRNLGCINAQGKEDISMNSVPIQQETLVVRRKHQGCSVSFQLEKVLVTVGCTCVTPVIHHVQ
notes: human IL-17F, residues 31-163 of UniProt Q96PD4, secreted with the CD33 signal peptide (P20138-1); also called IL-17F wt
- Kd [1]: 4 nM

B2: human IL-17F homodimer, R77A (ligand, UniProt Q96PD4 31-163, looked up)
chain: B1 chain with R47A
notes: human IL-17F, residues 31-163 of UniProt Q96PD4, secreted with the CD33 signal peptide, Arg77 to alanine; also called IL-17F R77A; source: HEK293S, transient expression, purified (as the wild type)
- Kd [1]: 905 nM
- Kd [2]: 726 nM

B3: human IL-17F homodimer, Arg77 to alanine mutant (ligand, UniProt Q96PD4 31-163, looked up)
chain: B1 chain with R47A
notes: human IL-17F, residues 31-163 of UniProt Q96PD4, cloned behind the CD33 signal peptide and the APP6-tag, R77A; also called IL-17F R77A; point mutant of the IL-17F homodimer; source: HEK293S, transient expression, secreted, purified
- fold reduction in binding affinity against wild-type IL-17F [3]: ≥ 200 fold
- fold reduction in affinity against wild-type IL-17F [4]: > 5 fold

From PMC5566378, “The human IL-17A/F heterodimer: a two-faced cytokine with unique receptor recognition properties” (Scientific Reports, 2017)
